Measured values from US20120009180A1 (Kyowa Kirin, published 2012).

Experiments:
[1] = biological target: T1, Aβ oligomers prepared from Amyloid β-protein, Human 1-42 peptide (human, UniProt P05067 672-713); test: SPR (Biacore T100), Aβ oligomers amine-coupled to CM5 chip, antibody injected, Bivalent Analyte model (ka1)
T1 construct: domain: Amyloid β-protein 1-42; Oligomeric preparation (HFIP, DMSO, acetic acid solution pH 4.5, overnight at 4 °C); Amine-coupled to a CM5 chip; also called amyloid β oligomer
Method: (§1) All the following operations were performed using Biocore T100 (manufactured by GE Healthcare Bio-sciences). The Aβ oligomers obtained in (1) of Example 2 were immobilized to the CM5 sensor chip (GE Healthcare Bio-sciences) using the amine coupling method.
(§2) Onto the chip to which the Aβ oligomers were immobilized for measurement samples prepared to have 8 levels of density by diluting from 30 μg/mL by doubling dilution in a stepwise manner (HV0LV0, HV5aLV0, HV5aLV1b, HV5aLV3, HV6LV0, HV6LV1b, and HV6LV3) was sequentially injected and measured in the order from the lower density based on the automatic program of the multi-kinetics.
(§3) Using the analysis software attached to the device, Biacore T100 Evaluation software (manufactured by Biacore Life Science), analysis was carried out with the Bivalent Analyte model to calculate the binding rate constant ka and the dissociation rate constant kd of each of the antibody against Aβ oligomers.

[2] = biological target: T1, Aβ oligomers prepared from Amyloid …; test: SPR (Biacore T100), Aβ oligomers amine-coupled to CM5 chip, antibody injected, Bivalent Analyte model (kd1/ka1)
Method: as §1, §2, §3

[3] = biological target: T2, Aβ monomers prepared from Biotin-beta-Amyloid, Human 1-40 (human, UniProt P05067 672-711, biotin (Biotin-beta-Amyloid; position of the biotin not stated)); test: SPR (Biacore T100), biotin-Aβ1-40 monomers captured on SA chip, antibody injected
T2 construct: domain: beta-Amyloid 1-40; captured through biotin on an SA sensor chip; also called amyloid β protein monomer
Method: In order to analyze the binding activity of the respective anti-Aβ oligomer humanized antibodies (HV0LV0, HV5aLV0, HV5aLV1b, HV5aLV3, HV6LV0, HV6LV1b, and HV6LV3) against Aβ monomers, the binding activity was measured in the same manner as in (1) of this Example. In addition, the binding activity of anti-Aβ antibody 6E10 (manufactured by CONVANCE) was measured as a control antibody.
The Aβ monomers obtained in (2) of Example (2) were immobilized to the SA sensor chip (manufactured by GE Healthcare Bio-sciences) by the biotin capturing method. Onto the chip to which the Aβ monomers were immobilized, samples for measurement, which were prepared to have 5 levels of density by diluting from 30 μg/mL by doubling dilution in a stepwise manner (HV0LV0, HV5aLV0, HV5aLV1b, HV5aLV3, HV6LV0, HV6LV1b, and HV6LV3) were sequentially injected and measured in the order from the lower density based on the automatic program of the multi-kinetics mode.

[4] = biological target: T1, Aβ oligomers prepared from Amyloid …; test: SPR (Biacore T100), Aβ oligomers amine-coupled to CM5 chip, antibody injected, Bivalent Analyte model (kd1)
Method: as §1, §2, §3

T1 sequence (P05067 672-713 limits assumed): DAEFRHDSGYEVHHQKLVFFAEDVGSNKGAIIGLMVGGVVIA
T2 sequence (P05067 672-711 limits assumed): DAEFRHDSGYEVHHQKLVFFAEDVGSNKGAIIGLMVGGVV

B1: anti-Aβ oligomer humanized antibody HV0LV0 (antibody, V domains shown)
VH: DVQLVESGGGVVQPGRSLRLSCAASGFTFSSFGMHWVRQAPGKGLQWMVYISSGSSTIYYADTVKGRFTISRDNSRSTLFLQMNSLRGEDTAVYYCARTGTRAYWGQGTLVTVSS
VL: DIVMTQSPLSLPVTPGEPASISCRSSQSIVHSNGNTYLEWYLQKPGQSPQLLIYKVSNRFSGVPDRFSGSGSGTDFTLKISRVEAEDVGVYYCFQGSHVPPTFGQGTKLEIK
notes: purified on Prosep vA; also called HV0LVV0; 4H5HV0 + 4H5LV0
- kon [1]: 14000 M⁻¹ s⁻¹
- Kd [2]: 100 nM
- binding result [3]: no binding
- koff [4]: 0.0014 s⁻¹

B2: anti-Aβ oligomer humanized antibody HV5aLV0 (antibody, V domains shown)
VH: DVQLVESGGGVVQPGRSLRLSCAASGFTFSSFGMHWVRQAPGKGLEWVAYISSGSSTIYYADTVKGRFTISRDNSRSTLFLQMNSLRGEDTAMYYCAGTGTRAYWGQGTLVTVSS
VL: DIVMTQSPLSLPVTPGEPASISCRSSQSIVHSNGNTYLEWYLQKPGQSPQLLIYKVSNRFSGVPDRFSGSGSGTDFTLKISRVEAEDVGVYYCFQGSHVPPTFGQGTKLEIK
notes: also called HV5aVL0
- kon [1]: 11000 M⁻¹ s⁻¹
- Kd [2]: 55 nM
- binding result [3]: no binding
- koff [4]: 0.00063 s⁻¹

B3: anti-Aβ oligomer humanized antibody HV5aLV1b (antibody, V domains shown)
VH: DVQLVESGGGVVQPGRSLRLSCAASGFTFSSFGMHWVRQAPGKGLEWVAYISSGSSTIYYADTVKGRFTISRDNSRSTLFLQMNSLRGEDTAMYYCAGTGTRAYWGQGTLVTVSS
VL: DIVMTQSPLSLPVTLGEPASISCRSSQSIVHSNGNTYLEWYLQKPGQSPQLLIYKVSNRFSGVPDRFSGSGSGTDFTLKISRVEAEDVGVYYCFQGSHVPPTFGQGTKLEIK
- kon [1]: 9800 M⁻¹ s⁻¹
- Kd [2]: 90 nM
- binding result [3]: no binding
- koff [4]: 0.00088 s⁻¹

B4: anti-Aβ oligomer humanized antibody HV6LV3 (antibody, V domains shown)
VH: DVQLVESGGGVVQPGRSLRLSCAASGFTFSSFGMHWVRQAPGKGLEWVAYISSGSSTIYYADTVKGRFTISRDNSRNTLFLQMNSLRGEDTAMYYCAGTGTRAYWGQGTLVTVSS
VL: DVVMTQSPLSLPVTLGEPASISCRSSQSIVHSNGNTYLEWYLQKPGQSPKLLIYKVSNRFSGVPDRFSGSGSGTDFTLKISRVEAEDVGVYYCFQGSHVPPTFGQGTKLEIK
- kon [1]: 8200 M⁻¹ s⁻¹
- Kd [2]: 110 nM
- binding result [3]: no binding
- koff [4]: 0.00092 s⁻¹
